# Values joined by “and” are separate entries in the source; they are usually repeats but may differ in a detail not shown here. Equal entries are not always repeated.
# Columns and labels:
# Set-up in all cases: species or system human
# [1] = system: Matrix-associated proTGFβ1 vs Cell-associated proTGFβ1; assay: MSD-SET binding, matrix vs cell bias (G/D); conditions: ratio of cell average KD to ECM average KD
# Text: (§1) Column (A) of the table provides monoclonal antibodies with discrete amino acid sequences. […] Columns (B), (C), (E) and (F) provide affinities of each of the listed antibodies, measured in KD, towards the antigen complex as indicated, respectively. […] Similarly, Average KD values calculated from (E) and (F) are shown in the corresponding column (G), which collectively represents affinities of the antibodies to cell-surface or cell-associated proTGF complexes. Finally, relative ratios between the average KD values from columns (D) and (G) are expressed as fold bias” in column (H). Thus, the greater the numerical of column (H) is, the greater bias exists for the particular antibody, when comparing binding preferences of the antibody for matrix-associated complexes to cell-surface complexes. This is one way of quantitatively representing and comparing inherent bias of antibodies to their target complexes. Such analyses may be useful in guiding the selection process for a candidate antibody for particular therapeutic use. Select antibodies of the present disclosure, as measured by MSD-SET, show context-bias (i.e., greater than five-fold bias) or unbias (i.e., less than 5-fold bias) toward matrix-associated complexes over cell-associated complexes. […] Without being bound by a particular theory, the differences in the kinetics of the assays and/or differences in the nature of recombinant proteins may account for the noticeable differences seen in Ab19 binding to hGARP complexes observed in the above Octet assay (see Table 6) compared to the below MSD-SET assay (see Table 7 below). For example, the Octet assay measures kinetic on and off rates, while the MSD-SET assay measures binding at equilibrium. In addition, the recombinant antibodies used in the Octet assay were expressed as IgG1 antibodies in yeast, while the antibodies used in the MSD assay were expressed as IgG4 antibodies in mammalian cells.
# [2] = system: Cell-associated proTGFβ1; assay: Octet binding, cell average of hGARP and hLRRC33 complexes; conditions: average KD of (E) and (F), read-out: (G) Cell AVRG
# Text: (§2) Column (A) of the table provides monoclonal antibodies with discrete amino acid sequences. […] Columns (B), (C), (E) and (F) provide affinities of each of the listed antibodies, measured in KD, towards the antigen complex as indicated, respectively. […] Average KD values calculated from (B) and (C) are shown in the corresponding column (D), which collectively represents affinities of the antibodies to ECM- or matrix-associated proTGFβ1 complexes. Similarly, Average KD values calculated from (E) and (F) are shown in the corresponding column (G), which collectively represents affinities of the antibodies to cell-surface or cell-associated proTGF complexes. Finally, relative ratios between the average KD values from columns (D) and (G) are expressed as fold bias” in column (H). Thus, the greater the numerical of column (H) is, the greater bias exists for the particular antibody, when comparing binding preferences of the antibody for matrix-associated complexes to cell-surface complexes. This is one way of quantitatively representing and comparing inherent bias of antibodies to their target complexes. Such analyses may be useful in guiding the selection process for a candidate antibody for particular therapeutic use.
# [3] = system: Matrix-associated proTGFβ1 vs Cell-associated proTGFβ1; assay: Octet binding, matrix vs cell bias (G/D); conditions: ratio of cell average KD to ECM average KD
# Text: as §2
# [4] = system: Cell-associated proTGFβ1; assay: MSD-SET binding, cell average of hGARP and hLRRC33 complexes; conditions: average KD of (E) and (F), read-out: (G) Cell AVRG
# Text: as §1
# [5] = biological target: Matrix-associated proTGFβ1; assay: MSD-SET binding, ECM average of hLTBP1 and hLTBP3 complexes; conditions: average KD of (B) and (C), read-out: (D) ECM AVRG
# Text: as §1
# [6] = biological target: Matrix-associated proTGFβ1; assay: Octet binding, ECM average of hLTBP1 and hLTBP3 complexes; conditions: average KD of (B) and (C), read-out: (D) ECM AVRG
# Text: as §2
Kd [5] [pM],Kd [6] [pM],Molecule,(H) G/D (fold bias) [1],Kd [2] [pM],(H) G/D (fold bias) [3] [fold],Kd [4] [pM]
2840,172,"Ab19: monoclonal antibody binding proTGFβ1 complexes; VH SEQ ID NO: 234, VL SEQ ID NO: 15 (antibody, V domains shown) VH: QVQLVESGGGVVQPGRSLRLSCAASGFTFSSFAMTWVRQAPGKGLEWVSAISGSGAATYFADSVKGRFTISRDNSKNTLYLQMNSLRAEDTAVYYCARVSSGHWDFDEWGQGTLVTVSS VL: DIQLTQSPSSLSASVGDRVTITCRASQSISSYLNWYQQKPGKAPKLLIYAASNLQSGVPSRFSGSGSGTDFTLTISSLQPEDFATYYCQQTYTVPLTFGGGTKVEIK",1.675 fold and 1.68 fold,5950,34.47,4750
–,160,"Ab11: monoclonal antibody binding proTGFβ1 complexes; VH SEQ ID NO: 216, VL SEQ ID NO: 15 (antibody, V domains shown) VH: EVQLLESGGGLVQPGGSLRLSCAASGFTFRNYAMSWVRQAPGKGLEWVSSISGSGGATYYADSVKGRFTISRDNSKNTLYLQMNSLRAEDTAVYYCARVSSGHWDFDYWGQGTLVTVSS VL: DIQLTQSPSSLSASVGDRVTITCRASQSISSYLNWYQQKPGKAPKLLIYAASNLQSGVPSRFSGSGSGTDFTLTISSLQPEDFATYYCQQTYTVPLTFGGGTKVEIK",3.87 fold,698,–,4650
–,191,"Ab17: monoclonal antibody binding proTGFβ1 complexes; VH SEQ ID NO: 230, VL SEQ ID NO: 15 (antibody, V domains shown) VH: EVQLLESGGGVVQPGGSLRLSCAASGFTFSSFAMTWVRQAPGKGLEWVSAISGSGAATYFADSVKGRFTISRDNSKNTLYLQMNSLRAEDTAVYYCARVSSGHWDFDYWGQGTLVTVSS VL: DIQLTQSPSSLSASVGDRVTITCRASQSISSYLNWYQQKPGKAPKLLIYAASNLQSGVPSRFSGSGSGTDFTLTISSLQPEDFATYYCQQTYTVPLTFGGGTKVEIK",–,4640,24.288,–
200,162,"Ab20: monoclonal antibody binding proTGFβ1 complexes; VH SEQ ID NO: 236, VL SEQ ID NO: 15 (antibody, V domains shown) VH: EVQLLESGGGLVQPGGSLRLSCAASGFTFSAYAMTWVRQAPGKGLEWVSAISGSGGVTYYADSVKGRFTISRDNSKNTLYLQMNSLRAEDTAVYYCARVSSGHWDYDYWGQGTLVTVSS VL: DIQLTQSPSSLSASVGDRVTITCRASQSISSYLNWYQQKPGKAPKLLIYAASNLQSGVPSRFSGSGSGTDFTLTISSLQPEDFATYYCQQTYTVPLTFGGGTKVEIK",6.75 fold,714,–,–
720,170,"Ab12: monoclonal antibody binding proTGFβ1 complexes; VH SEQ ID NO: 212, VL SEQ ID NO: 15 (antibody, V domains shown) VH: QVQLVESGGGVVQPGRSLRLSCAASGFTFSDYAMVWVRQAPGKGLEWVSAISGSGFTTYYADSVKGRFTISRDNSKNTLYLQMNSLRAEDTAVYYCARVSSGHWDFDYWGQGTLVTVSS VL: DIQLTQSPSSLSASVGDRVTITCRASQSISSYLNWYQQKPGKAPKLLIYAASNLQSGVPSRFSGSGSGTDFTLTISSLQPEDFATYYCQQTYTVPLTFGGGTKVEIK",3.40 fold,3890,22.897,2450
–,262,"Ab13: monoclonal antibody binding proTGFβ1 complexes; VH SEQ ID NO: 222, VL SEQ ID NO: 223 (antibody, V domains shown) VH: EVQLLESGGGLVQPGGSLRLSCAASGFTFADYAMTWVRQAPGKGLEWVSAISSFASAIYYADSVKGRFTISRDNSKNTLYLQMNSLRAEDTAVYYCARVSSGHWDFDYWGQGTLVTVSS VL: DIQMTQSPSSLSASVGDRVTITCRASQSISSYLNWYQQKPGKAPKLLIYAASSLQSGVPSRFSGSGSGTDFTLTISSLQPEDFATYYCQQVYDPPLTFGGGTKVEIK",–,5700,21.71,–
–,159,"Ab15: monoclonal antibody binding proTGFβ1 complexes; VH SEQ ID NO: 226, VL SEQ ID NO: 15 (antibody, V domains shown) VH: EVQLVESGGGVVQPGRSLRLSCAASGFTFSDYAMVWVRQAPGKGLEWVSAISGSGFTTYYADSVKGRFTISRDNSKNTLYLQMNSLRAEDTAVYYCARVSSGHWDFDYWGQGTLVTVSS VL: DIQLTQSPSSLSASVGDRVTITCRASQSISSYLNWYQQKPGKAPKLLIYAASNLQSGVPSRFSGSGSGTDFTLTISSLQPEDFATYYCQQTYTVPLTFGGGTKVEIK",–,3860,24.25,–
–,284,"Ab18: monoclonal antibody binding proTGFβ1 complexes; VH SEQ ID NO: 232, VL SEQ ID NO: 15 (antibody, V domains shown) VH: QVQLVESGGGVVQPGRSLRLSCAASGFTFSDYAMVWVRQAPGKGLEWVSAISGSGAATYFADSVKGRFTISRDNSKNTLYLQMNSLRAEDTAVYYCATVSSGHWDFDYWGQGTLVTVSS VL: DIQLTQSPSSLSASVGDRVTITCRASQSISSYLNWYQQKPGKAPKLLIYAASNLQSGVPSRFSGSGSGTDFTLTISSLQPEDFATYYCQQTYTVPLTFGGGTKVEIK",–,6260,22.00,–
–,156,"Ab16: monoclonal antibody binding proTGFβ1 complexes; VH SEQ ID NO: 228, VL SEQ ID NO: 15 (antibody, V domains shown) VH: EVQLLESGGGLVQPGGSLRLSCAASGFTFSNYAMSWVRQAPGKGLEWVSAISGSGFTTYYADSVKGRFTISRDNSKNTLYLQMNSLRAEDTAVYYCARVSSGHWDFDYWGQGTLVTVSS VL: DIQLTQSPSSLSASVGDRVTITCRASQSISSYLNWYQQKPGKAPKLLIYAASNLQSGVPSRFSGSGSGTDFTLTISSLQPEDFATYYCQQTYTVPLTFGGGTKVEIK",–,2400,15.307,–
–,341,"Ab14: monoclonal antibody binding proTGFβ1 complexes; VH SEQ ID NO: 224, VL SEQ ID NO: 223 (antibody, V domains shown) VH: EVQLLESGGGLVQPGGSLRLSCAASGFTFSAYAMTWVRQAPGKGLEWVSAISGTGGSTYYADSVKGRFTISRDNSKNTLYLQMNSLRAEDTAVYYCARVSSGHWDFDYWGQGTLVTVSS VL: DIQMTQSPSSLSASVGDRVTITCRASQSISSYLNWYQQKPGKAPKLLIYAASSLQSGVPSRFSGSGSGTDFTLTISSLQPEDFATYYCQQVYDPPLTFGGGTKVEIK",–,5920,17.36,–
